Data from publication PMC9507130.

Biological target: Vrl1-Envy (S. cerevisiae)
Test: co-IP; yeast spheroplast lysates (0.1% Tween-20, 50 mM HEPES, 1 mM EDTA, 50 mM NaCl, pH 7.4); rabbit anti-GFP or anti-HA, Protein A Sepharose, 4 °C; western blot; Vrl1 over-expressed in some panels; vin1Δ strain for Vps5-3HA with Vrl1-Envy

B1: Vin1-3HA (natural protein)
chain: MENDKASHASPSIGVNEFVVQGEISIDDSERSVKSVSVSISDDEDSKTDVQDNMATPSTRSKFQTDLAIDNRLLEKDPKYKKLFTEKRRRRRPESCINLMTKGKGTGQKDNINDQIFSLRILPGSDLNSLKDSLWIIKISTQPDVEKTIARAFSDFYWLYHQLQNNHWGKTIPPPTRSNILVEKDEFAINHLFMIRNNEKYDPIFNFKPEYIISLQLMAMIKHIFNDKVLRLDSNFIDFISWDDDLPESLQIVVDDSTFTGDKILMTSSQFRELKEFHKQSKKVESITNSHASLIPVTELTEIYISPTKLFSRKDYQRLFQPQSTDNTFNNNDPLIQEWIPKSKTLFTSLSFGSSAPTYQEASTEIQACHDWVSISKEQWKQLLYHVLQYIVDEAVKVNSVINEFTECLKQISLDEVIRANSELFLKFSKLNESFLKKFKGASRQDILKLIILFDENVRFCESFESILNQRLKLGKILSIIEVDLDKKKNFLDKLSPGNNNSNNEDLKIRTAEDEYRIVLKRYNRVKQSWEKIMEDILNERKEFEKREAAEVNSCLKSIRDLNMDEKKHYLQLWQDFVPDEHISQ
Binder B1 has a percent recovery of Vin1 in the co-IP of 64%.
